These results are taken from patent US20030040094A1.

For assay [1], the target named is bovine aorta ATPDase type II (78 KDa catalytic unit) (bovine) (UniProt O18956). As to the kind of experiment: precipitation of ADPase activity with lectin-agarose.
The target is the same in assay [2]. As to the kind of experiment: precipitation with lectin-agarose, elution with Me-alpha-D-mannopyranoside.
Assay [3] has the same target. As to the kind of experiment: precipitation with lectin-agarose, elution with D-GlcNAc.

Sequence of UniProt O18956 (O18956 whole entry, form in doubt): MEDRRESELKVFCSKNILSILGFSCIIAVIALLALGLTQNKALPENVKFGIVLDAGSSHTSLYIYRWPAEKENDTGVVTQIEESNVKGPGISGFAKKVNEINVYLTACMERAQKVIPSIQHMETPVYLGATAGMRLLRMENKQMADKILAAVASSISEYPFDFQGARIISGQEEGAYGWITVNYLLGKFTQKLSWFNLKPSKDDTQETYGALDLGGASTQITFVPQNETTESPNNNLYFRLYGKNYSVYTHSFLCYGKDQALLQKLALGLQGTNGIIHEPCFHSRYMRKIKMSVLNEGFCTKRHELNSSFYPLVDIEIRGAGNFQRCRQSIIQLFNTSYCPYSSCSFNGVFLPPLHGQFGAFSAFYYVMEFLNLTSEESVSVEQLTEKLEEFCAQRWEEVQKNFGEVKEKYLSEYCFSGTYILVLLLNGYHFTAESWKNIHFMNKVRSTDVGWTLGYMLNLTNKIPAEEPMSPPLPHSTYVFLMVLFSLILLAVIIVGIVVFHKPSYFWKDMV

On to “Con A conjugated to agarose (from UniProt P02866)”, for which, in assay [1], the Relative ADPase activity, Bound fraction was found to be 95% and the Relative ADPase activity, Supernatant (unbound) fraction came to 5%. The substance further registered a Relative ADPase activity, Eluted fraction in assay [2] of 62%.

For “WGA conjugated to agarose (from UniProt P10968 27-197)”, in assay [1], the Relative ADPase activity, Bound fraction was found to be 95% and the Relative ADPase activity, Supernatant (unbound) fraction was determined as 5%. Also, in assay [3], the Relative ADPase activity, Eluted fraction was found to be 69%.
